# According to PMC10942865 (2024):
# B1: Flag-PLK4 wt (polo-like kinase 4), full-length [human] / DCAF1 (VprBP), endogenous [human (endogenous in HEK293T)] (parent complex)
# chain 1: MATCIGEKIEDFKVGNLLGKGSFAGVYRAESIHTGLEVAIKMIDKKAMYKAGMVQRVQNEVKIHCQLKHPSILELYNYFEDSNYVYLVLEMCHNGEMNRYLKNRVKPFSENEARHFMHQIITGMLYLHSHGILHRDLTLSNLLLTRNMNIKIADFGLATQLKMPHEKHYTLCGTPNYISPEIATRSAHGLESDVWSLGCMFYTLLIGRPPFDTDTVKNTLNKVVLADYEMPSFLSIEAKDLIHQLLRRNPADRLSLSSVLDHPFMSRNSSTKSKDLGTVEDSIDSGHATISTAITASSSTSISGSLFDKRRLLIGQPLPNKMTVFPKNKSSTDFSSSGDGNSFYTQWGNQETSNSGRGRVIQDAEERPHSRYLRRAYSSDRSGTSNSQSQAKTYTMERCHSAEMLSVSKRSGGGENEERYSPTDNNANIFNFFKEKTSSSSGSFERPDNNQALSNHLCPGKTPFPFADPTPQTETVQQWFGNLQINAHLRKTTEYDSISPNRDFQGHPDLQKDTSKNAWTDTKVKKNSDASDNAHSVKQQNTMKYMTALHSKPEIIQQECVFGSDPLSEQSKTRGMEPPWGYQNRTLRSITSPLVAHRLKPIRQKTKKAVVSILDSEEVCVELVKEYASQEYVKEVLQISSDGNTITIYYPNGGRGFPLADRPPSPTDNISRYSFDNLPEKYWRKYQYASRFVQLVRSKSPKITYFTRYAKCILMENSPGADFEVWFYDGVKIHKTEDFIQVIEKTGKSYTLKSESEVNSLKEEIKMYMDHANEGHRICLALESIISEEERKTRSAPFFPIIIGRKPGSTSSPKALSPPPSVDSNYPTRERASFNRMVMHSAASPTQAPILNPSMVTNEGLGLTTTASGTDISSNSLKDCLPKSAQLLKSVFVKNVGWATQLTSGAVWVQFNDGSQLVVQAGVSSISYTSPNGQTTRYGENEKLPDYIKQKLQCLSSILLMFSNPTPNFH
# chain 2: not shown
# B2: Flag-PLK4 wt (polo-like kinase 4), full-length [human] / CEP152, endogenous [human (endogenous in HEK293T)] (parent complex)
# chain 1: B1 chain 1
# chain 2: MSLDFGSVALPVQNEDEEYDEEDYEREKELQQLLTDLPHDMLDDDLSSPELQYSDCSEDGTDGQPHHPEQLEMSWNEQMLPKSQSVNGYNEIQSLYAGEKCGNVWEENRSKTEDRHPVYHPEEGGDEGGSGYSPPSKCEQTDLYHLPENFRPYTNGQKQEFNNQATNVIKFSDPQWNHFQGPSCQGLEPYNKVTYKPYQSSAQNNGSPAQEITGSDTFEGLQQQFLGANENSAENMQIIQLQVLNKAKERQLENLIEKLNESERQIRYLNHQLVIIKDEKDGLTLSLRESQKLFQNGKEREIQLEAQIKALETQIQALKVNEEQMIKKSRTTEMALESLKQQLVDLHHSESLQRAREQHESIVMGLTKKYEEQVLSLQKNLDATVTALKEQEDICSRLKDHVKQLERNQEAIKLEKTEIINKLTRSLEESQKQCAHLLQSGSVQEVAQLQFQLQQAQKAHAMSANMNKALQEELTELKDEISLYESAAKLGIHPSDSEGELNIELTESYVDLGIKKVNWKKSKVTSIVQEEDPNEELSKDEFILKLKAEVQRLLGSNSMKRHLVSQLQNDLKDCHKKIEDLHQVKKDEKSIEVETKTDTSEKPKNQLWPESSTSDVVRDDILLLKNEIQVLQQQNQELKETEGKLRNTNQDLCNQMRQMVQDFDHDKQEAVDRCERTYQQHHEAMKTQIRESLLAKHALEKQQLFEAYERTHLQLRSELDKLNKEVTAVQECYLEVCREKDNLELTLRKTTEKEQQTQEKIKEKLIQQLEKEWQSKLDQTIKAMKKKTLDCGSQTDQVTTSDVISKKEMAIMIEEQKCTIQQNLEQEKDIAIKGAMKKLEIELELKHCENITKQVEIAVQNAHQRWLGELPELAEYQALVKAEQKKWEEQHEVSVNKRISFAVSEAKEKWKSELENMRKNILPGKELEEKIHSLQKELELKNEEVPVVIRAELAKARSEWNKEKQEEIHRIQEQNEQDYRQFLDDHRNKINEVLAAAKEDFMKQKTELLLQKETELQTCLDQSRREWTMQEAKRIQLEIYQYEEDILTVLGVLLSDTQKEHISDSEDKQLLEIMSTCSSKWMSVQYFEKLKGCIQKAFQDTLPLLVENADPEWKKRNMAELSKDSASQGTGQGDPGPAAGHHAQPLALQATEAEADKKKVLEIKDLCCGHCFQELEKAKQECQDLKGKLEKCCRHLQHLERKHKAVVEKIGEENNKVVEELIEENNDMKNKLEELQTLCKTPPRSLSAGAIENACLPCSGGALEELRGQYIKAVKKIKCDMLRYIQESKERAAEMVKAEVLRERQETARKMRKYYLICLQQILQDDGKEGAEKKIMNAASKLATMAKLLETPISSKSQSKTTQSALPLTSEMLIAVKKSKRNDVNQKIPCCIESKSNSVNTITRTLCEQAPKRRAACNLQRLLENSEHQSIKHVGSKETHLEFQFGDGSCKHLNSLPRNVSPEFVPCEGEGGFGLHKKKDLLSDNGSESLPHSAAYPFLGTLGNKPSPRCTPGPSESGCMHITFRDSNERLGLKVYKCNPLMESENAASEKSQGLDVQEPPVKDGGDLSDCLGWPSSSATLSFDSREASFVHGRPQGTLEIPSESVKSKQFSPSGYLSDTEESNMICQTMKCQRYQTPYLSEETTYLEPGKISVNCGHPSRHKADRLKSDFKKLSSTLPSSVCQQPSRKLIVPLSSQQDSGFDSPFVNLD
# B3: Flag-PLK4 wt (polo-like kinase 4), full-length [human] / CEP192, endogenous [human (endogenous in HEK293T)] (parent complex)
# chain 1: B1 chain 1
# chain 2: MEDFRGIAEESFPSFLTNSLFGNSGILENVTLSSNLGLPVAVSTLARDRSSTDNRYPDIQASYLVEGRFSVPSGSSPGSQSDAEPRERLQLSFQDDDSISRKKSYVESQRLSNALSKQSALQMETAGPEEEPAGATESLQGQDLFNRASPLEQAQDSPIDFHLQSWMNNKEPKIVVLDAGKHFEDKTLKSDLSHTSLLENEKLILPTSLEDSSDDDIDDEMFYDDHLEAYFEQLAIPGMIYEDLEGPEPPEKGFKLPTNGLRQANENGSLNCKFQSENNSSLISLDSHSSETTHKESEESQVICLPGTSNSIGTGDSRRYTDGMLPFSSGTWGTEKEIENLKGIVPDLNSECASKDVLVKTLRAIDVKLNSDNFHDANANRGGFDLTDPVKQGAECPHQNKTVLHMDGCLDTETPTVSIQENVDVASLKPISDSGINFTDAIWSPTCERRTCECHESIEKNKDKTDLPQSVVYQNEEGRWVTDLAYYTSFNSKQNLNVSLSDEMNEDFRSGSEAFDLIAQDEEEFNKEHQFIQEENIDAHNTSVALGDTSWGATINYSLLRKSRSTSDLDKDDASYLRLSLGEFFAQRSEALGCLGGGNNVKRPSFGYFIRSPEKREPIALIRKSDVSRGNLEKEMAHLNHDLYSGDLNEQSQAQLSEGSITLQVEAVESTSQVDENDVTLTADKGKTEDTFFMSNKPQRYKDKLPDSGDSMLRISTIASAIAEASVNTDPSQLAAMIKALSNKTRDKTFQEDEKQKDYSHVRHFLPNDLEKSNGSNALDMEKYLKKTEVSRYESALENFSRASMSDTWDLSLPKEQTTQDIHPVDLSATSVSVRAPEENTAAIVYVENGESENQESFRTINSSNSVTNRENNSAVVDVKTCSIDNKLQDVGNDEKATSISTPSDSYSSVRNPRITSLCLLKDCEEIRDNRENQRQNECVSEISNSEKHVTFENHRIVSPKNSDLKNTSPEHGGRGSEDEQESFRPSTSPLSHSSPSEISGTSSSGCALESFGSAAQQQQPPCEQELSPLVCSPAGVSRLTYVSEPESSYPTTATDDALEDRKSDITSELSTTIIQGSPAALEERAMEKLREKVPFQNRGKGTLSSIIQNNSDTRKATETTSLSSKPEYVKPDFRWSKDPSSKSGNLLETSEVGWTSNPEELDPIRLALLGKSGLSCQVGSATSHPVSCQEPIDEDQRISPKDKSTAGREFSGQVSHQTTSENQCTPIPSSTVHSSVADMQNMPAAVHALLTQPSLSAAPFAQRYLGTLPSTGSTTLPQCHAGNATVCGFSGGLPYPAVAGEPVQNSVAVGICLGSNIGSGWMGTSSLCNPYSNTLNQNLLSTTKPFPVPSVGTNCGIEPWDSGVTSGLGSVRVPEELKLPHACCVGIASQTLLSVLNPTDRWLQVSIGVLSISVNGEKVDLSTYRCLVFKNKAIIRPHATEEIKVLFIPSSPGVFRCTFSVASWPCSTDAETIVQAEALASTVTLTAIAESPVIEVETEKKDVLDFGDLTYGGWKALPLKLINRTHATVPIRLIINANAVAWRCFTFSKESVRAPVEVAPCADVVTRLAGPSVVNHMMPASYDGQDPEFLMIWVLFHSPKKQISSSDILDSAEEFSAKVDIEVDSPNPTPVLRSVSLRARAGIARIHAPRDLQTMHFLAKVASSRKQHLPLKNAGNIEVYLDIKVPEQGSHFSVDPKNLLLKPGEEHEVIVSFTPKDPEACEERILKIFVQPFGPQYEVVLKGEVISSGSKPLSPGPCLDIPSILSNKQFLAWGGVPLGRTQLQKLALRNNSASTTQHLRLLIRGQDQDCFQLQNTFGSEQRLTSNCEIRIHPKEDIFISVLFAPTRLSCMLARLEIKQLGNRSQPGIKFTIPLSGYGGTSNLILEGVKKLSDSYMVTVNGLVPGKESKIVFSVRNTGSRAAFVKAVGFKDSQKKVLLDPKVLRIFPDKFVLKERTQENVTLIYNPSDRGINNKTATELSTVYLFGGDEISRQQYRRALLHKPEMIKQILPEHSVLQNINFVEAFQDELLVTEVYDLPQRPNDVQLFYGSMCKIILSVIGEFRDCISSREFLQPSSKASLESTSDLGASGKHGGNVSLDVLPVKGPQGSPLLSRAARPPLDQLASEEPWTVLPEHLILVAPSPCDMAKTGRFQIVNNSVRLLRFELCWPAHCLTVTPQHGCVAPESKLQILVSPNSSLSTKQSMFPWSGLIYIHCDDGQKKIVKVQIREDLTQVELLTRLTSKPFGILSPVSEPSVSHLVKPMTKPPSTKVEIRNKSITFPTTEPGETSESCLELENHGTTDVKWHLSSLAPPYVKGVDESGDVFRATYAAFRCSPISGLLESHGIQKVSITFLPRGRGDYAQFWDVECHPLKEPHMKHTLRFQLSGQSIEAENEPENACLSTDSLIKIDHLVKPRRQAVSEASARIPEQLDVTARGVYAPEDVYRFRPTSVGESRTLKVNLRNNSFITHSLKFLSPREPFYVKHSKYSLRAQHYINMPVQFKPKSAGKFEALLVIQTDEGKSIAIRLIGEALGKN
# Variants of: B1
# Test: co-immunoprecipitation (IP against Flag tag, Western blot quantification); HEK293T cells, 48 h overexpression, N = 3; read off a plot
row,Variant,ratio to parent
1,chain 1 K699A,~0
2,chain 1 I602E,~0.01
3,chain 1 K608A,~0
4,chain 1 R691A,~0.05

# Variants of: B1
# Test: as above
# Remark: another data set of the same source
row,Variant,ratio to parent
1,chain 1 K753A,~1.6
2,chain 1 K748A,~1.5

# Variants of: B1
# Test: as above
# Remark: another data set of the same source
row,Variant,ratio to parent
1,chain 1 K41R,~0.79
2,"chain 1 S285A, chain 1 T289A",~0.58

# Variants of: B2
# Test: as above
row,Variant,ratio to parent
1,chain 1 I602E,~0.03
2,chain 1 K699A,~0.09
3,chain 1 R691A,~0.83
4,chain 1 K608A,~0.16

# Variants of: B3
# Test: as above
row,Variant,ratio to parent
1,chain 1 K608A,~0.1
2,chain 1 I602E,~0.01
3,chain 1 R691A,~1.5
4,chain 1 K699A,~0.1
